Measured values as given in US9394555B2, “Compositions comprising a polypeptide having cellulolytic enhancing activity and a dioxy compound and uses thereof” (priority 2010, dated 2016).

Legend:
Type in all cases: biochemical
[1] = molecular target: T1, T. aurantiacus GH61A polypeptide (Thermoascus aurantiacus, UniProt G3XAP7, N13Y); assay: Bacterial cellulose conversion assay (Examples 15, 16); details: A. oryzae CEL3A beta-glucosidase (50 mg protein per g cellulose) only; 72 hours, 50° C.
Experimental: Bacterial cellulose was prepared from NATA DE COCO (Huerto International Trading, Lucena City, Philippines) by extensive rinsing of one 500 ml can of cubes with water followed by homogenation for 15 minutes in 0.25 M sodium hydroxide using a WARING BLENDER® (Waring Products, Torrington, Conn., USA). The resulting slurry was pelleted at 40,000×g in a SORVALL® RT7 centrifuge. The supernatant was discarded. The pellet was then resuspended in 0.25 M sodium hydroxide and stirred overnight at 4° C. This procedure was repeated four times. Following the first washing steps, the cellulose was washed six times under similar conditions, substituting water for 0.25 M sodium hydroxide. Following the water washing, the cellulose was again homogenized for 15 minutes in a WARING BLENDER®, and adjusted to a final volume of 250 ml.
A 0.36% bacterial cellulose slurry was prepared as described in Example 14. This 0.36% slurry was thoroughly resuspended by shaking, and quickly transferred to a 100 ml beaker and stirred rapidly with a magnetic stirrer. Seven hundred μl aliquots of the bacterial cellulose slurry were pipetted into wells of a 2.0 ml 96-deepwell plate (Axygen, Union City, Calif.) using a 1000 μl micropipette with a wide aperture tip (end of tip cut off about 2 mm from the base). One hundred μl of 10 mM MnSO4-500 mM sodium acetate pH 5 was then added to each well. One hundred μl of either deionized water, a 1% gallic acid solution dissolved in water, or a 1% gallic acid solution containing 50 mM EDTA were added to each well. Enzyme mixtures were prepared and then added simultaneously to all wells in a volume of 100 μl, for a total of 1 ml in each reaction. […] All experiments reported were performed in triplicate.
(§1) Primary analysis of the hydrolysis reactions was performed using an AGILENT® 1100 HPLC with CHEMSTATION® software equipped with an AMINEX™ HPX-87H column. After approximately 4 days, the deep-well plate was removed from the incubator and chilled overnight to 4° C. The plate was then mixed well by inversion and briefly centrifuged 52×g in a SORVALL® RT7 centrifuge for 10 seconds. Samples were then mixed by pipetting, and 200 μl from each well were transferred to a MULTISCREEN® HV centrifuge filter plate assembly. The centrifuge filter plate assembly was centrifuged at 2000 rpm in a SORVALL® RT7 centrifuge for 20 minutes. […] Sugars were detected using a refractive index detector with quantification by integration compared to purified sugar standards.
(§2) All HPLC data processing was performed using MICROSOFT EXCEL™ software. […] In this assay only glucose was measured since beta-glucosidase was at high levels in all samples but the controls. Percent conversion was determined using Equation 1. Triplicate data points were averaged and standard deviation was calculated.
The bacterial cellulose hydrolysis assay was performed as described in Example 15.
Data was collected and analyzed, as described in Example 15, after 72 hours of incubation at 50° C.

[2] = molecular target: T1, T. aurantiacus GH61A polypeptide; assay: Phosphoric acid swollen cellulose (PASC) hydrolysis assay (Examples 18, 19); details: A. oryzae CEL3A beta-glucosidase (20 mg protein per g cellulose) only; 72 hours, 50° C.
Experimental: A 1% phosphoric acid swollen cellulose (PASC) slurry was prepared from AVICEL® PH101 using the protocol described by Zhang et al., 2006, Biomacromolecules 7: 644-648.
The 1.0% PASC slurry prepared as described in Example 17 was thoroughly resuspended by shaking, and quickly transferred to a 100 ml beaker and stirred rapidly with a magnetic stirrer. Five hundred μl aliquots of the 1.0% PASC slurry were pipetted into wells of a 2.0 ml 96-deepwell plate (Axygen, Union City, Calif., USA) using a 1000 μl micropipette with a wide aperture tip (end of tip cut off about 2 mm from the base). One hundred μl of 10 mM MnSO4-500 mM sodium acetate pH 5 were then added to each well. […]
Primary analysis of the hydrolysis reactions was performed using an AGILENT® 1100 HPLC with CHEMSTATION® software equipped with an AMINEX™ HPX-87H column. […] Sugars were detected using a refractive index detector with quantification by integration compared to purified sugar standards.
as §2, with “calculated” for “determined”, “calculated. […]” for “calculated.”
Data were collected and analyzed, as described in Example 18, after 72 hours of incubation at 50° C.

[3] = molecular target: T1, T. aurantiacus GH61A polypeptide; assay: Phosphoric acid swollen cellulose (PASC) conversion assay (Examples 20, 21); details: A. oryzae CEL3A beta-glucosidase (20 mg protein per g cellulose) only; 72 hours, 50° C.
Experimental: A 1.0% PASC slurry was prepared as described in Example 17. Ten ml of the 1.0% PASC slurry, 10 ml of H2O, and […] of dioxy compound were thoroughly mixed by shaking,
Five hundred μl aliquots of the 0.50% phosphoric acid swollen cellulose/0.05% dioxy compound slurry were pipetted into wells of a 2.0 ml 96-deepwell plate (Axygen, Union City, Calif., USA) using a 1000 μl micropipette with a wide aperture tip (end of tip cut off about 2 mm from the base). One hundred μl of 10 mM MnSO4-500 mM sodium acetate pH 5 were then added to each well. Two hundred μl of deionized water were added to each well. Enzyme mixtures were prepared and then added simultaneously to all wells in a volume of 200 μl, for a total of 1 ml in each reaction. […] All experiments reported were performed in triplicate.
as §1
as §2, with “calculated” for “determined”
The PASC assay was performed as described in Example 20.
Data were collected and analyzed, as described in Example 20, after 72 hours of incubation at 50° C.

T1 sequence (G3XAP7 whole entry N13Y): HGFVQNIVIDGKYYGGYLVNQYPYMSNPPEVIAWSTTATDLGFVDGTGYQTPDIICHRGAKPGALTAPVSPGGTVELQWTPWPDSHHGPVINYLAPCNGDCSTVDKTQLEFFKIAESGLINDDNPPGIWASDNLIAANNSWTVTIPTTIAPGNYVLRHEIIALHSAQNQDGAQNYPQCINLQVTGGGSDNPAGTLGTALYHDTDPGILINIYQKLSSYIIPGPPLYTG

B1: A. oryzae CEL3A beta-glucosidase: CEL3A beta-glucosidase (SEQ ID NO: 112), recombinantly prepared as described in WO 2004/099228 (protein, listed as Aspergillus oryzae)
chain: MKLGWIEVAALAAASVVSAKDDLAYSPPFYPSPWADGQGEWAEVYKRAVDIVSQMTLTEKVNLTTGTGWQLERCVGQTGSVPRLNIPSLCLQDSPLGIRFSDYNSAFPAGVNVAATWDKTLAYLRGQAMGEEFSDKGIDVQLGPAAGPLGAHPDGGRNWEGFSPDPALTGVLFAETIKGIQDAGVIATAKHYIMNEQEHFRQQPEAAGYGFNVSDSLSSNVDDKTMHELYLWPFADAVRAGVGAVMCSYNQINNSYGCENSETLNKLLKAELGFQGFVMSDWTAHHSGVGAALAGLDMSMPGDVTFDSGTSFWGANLTVGVLNGTIPQWRVDDMAVRIMAAYYKVGRDTKYTPPNFSSWTRDEYGFAHNHVSEGAYERVNEFVDVQRDHADLIRRIGAQSTVLLKNKGALPLSRKEKLVALLGEDAGSNSWGANGCDDRGCDNGTLAMAWGSGTANFPYLVTPEQAIQNEVLQGRGNVFAVTDSWALDKIAAAARQASVSLVFVNSDSGEGYLSVDGNEGDRNNITLWKNGDNVVKTAANNCNNTVVIIHSVGPVLIDEWYDHPNVTGILWAGLPGQESGNSIADVLYGRVNPGAKSPFTWGKTRESYGSPLVKDANNGNGAPQSDFTQGVFIDYRHFDKFNETPIYEFGYGLSYTTFELSDLHVQPLNASRYTPTSGMTEAAKNFGEIGDASEYVYPEGLERIHEFIYPWINSTDLKASSDDSNYGWEDSKYIPEGATDGSAQPRLPASGGAGGNPGLYEDLFRVSVKVKNTGNVAGDEVPQLYVSLGGPNEPKVVLRKFERIHLAPSQEAVWTTTLTRRDLANWDVSAQDWTVTPYPKTIYVGNSSRKLPLQASLPKAQ
Question: For B1, which “conversion of the bacterial cellulose” value [1] is on record?
Answer: Its value is 2.4±2.9%.

Question: And the “conversion of PASC” value [2]?
Answer: Its value is 2.4±0.5%.

Question: And the “conversion of the phosphoric acid swollen cellulose” value [3]?
Answer: The value was 2.0±0.1%.
